Results as given in the DeepSol protein solubility set.

Assay: soluble on expression in E. coli; label from the status in PepcDB or PDB records

Row | Sequence | soluble on expression in E. coli
1 | MGSDKIHHHHHHLKAAIVTHLDQAPIYGDFPAPKPAPKQVLITVLASSVNQRVRSQADGSHYTKTPELPFIPGLDGVGRTSDGQLVYFLTRDPKFGALAEQTVTQQQLMFPLPEDADPAQIAASVNPAMAGWMALRVKAGQVVGKRVLVLGATGAAGTAAVQIAKTMGAAHVAGVGRNPDKLAALSDLGADTTVQLGDTAALAALPPADIVLDFLWGAPSATVMMTLLKARRDHAAKLIWIEIGGAAGPTLSLPAAALRSTGLTLVGSGQGSLTLADYQRELPALFTALTAGKFVTPTTVLSLSQVHDHWQDRGAARLVFQP | not soluble
2 | LPYPIPIALTDALDRSVSAELVAVLVAVTQGEPRVLTTEDARALPAGPFELAHRSLQAGLRAWVETQTHHPLGYVEQLYTFADSDRSNEAGARVISVSYLGLTREAGATGVAQVGWQHWYRYFPWEDWRAGRPAIIADEIAPRLLAWAGAGADAAARAQRRQRVALTFGLDGAGWNEDMVLQRYELLFEAGLVPESRHPDASGLPVAGQSMRHDHRRILATGIAR | not soluble
3 | MIKRVFIDTDIILDVALAREPFFTASKIILAMAENNIIIGNISSNCVANIYYILRKSGGDNKARKFILNIVKYITVIVINHRNVLDSLRSKFSDFEDALQHSSAVENQCEYIITRNIEDYKNAKIKVLLPEEFIGMFLEHHHHHH | not soluble
4 | MRSDVVARAMRLIADGTVDRDGVSGLAAQLGYTIRQLERLLQAVVGAGPLALARAQRMQTARVLIETTNLPFGDVAFAAGFSSIRQFNDTVRLACDGTPTALRARAAARFESATASAGTVSLRLPVRAPFAFEGVFGHLAATAVPGCEEVRDGAYRRTLRLPWGNGIVSLTPAPDHVRCLLVLDDFRDLMTATARCRRLLDLDADPEAIVEALGADPDLRAVVGKAPGQRIPRTVDEAEFAVRAVLAQQVSTKAASTHAGRLVAAYGRPVHDRHGALTHTFPSIEQLAEIDPGHLAVPKARQRTINALVASLADKSLVLDAGCDWQRARGQLLALPGVGPWTAEVIAMRGLGDPDAFPASDLGLRLAAKKLGLPAQRRALTVHSARWRPWRSYATQHLWTTLEHPVNQWPPQEKIALEHHHHHH | not soluble
5 | MAHHHHHHMKALVFLEVEESATGSNTARSTATQMHALFAGLVEMSMHVYLEKDASLAAASGAAEARVLLLSTVVKDLLSVREQSRSSPAQYVRYVQRMLIARTPVVPYITTQLLQDCQSQTALLTTSHGPTVLGAKRGDPAECFSVVHPRRYR | not soluble
6 | SLGSVLVDLQIATENIEGLPTEEQIVQWATGAVQPEGNEVEMTVRIVDEAESHELNLTYRGKDRPTNVLSFPFECPDEVELPLLGDLVICRQVVEREASEQEKPLMAHWAHMVVHGSLHLLGYDHIEDDEAEEMESLETQIMQGLGFDDPYLAEK | soluble
7 | KQKGNYGEYLADDNLINNPKLKEAGYDLERIGGKVPTSPDDKITKGIDGIYINKNPNSNIKYVIDEAKFGKAGLSAKTRDGKQMSDSWLMGSRSRDNRILKALNNNEELADDILEALANNQVERILSKVDINGEVTTYRLDSEGNIIGLWP | soluble
8 | MGSDKIHHHHHHMLVVKDKPKSPISEAYRTLRSNIQFSSFDKDMQLILITSSGPGEGKSTTSCNLALAMAEAGNSVLLLDCDLRKPSVHKKFKISNNIGLSNVLAGQTKFESASHWYNQNLCILTAGKIPPNPAEMLSSKRMKAFLNEAKGVFKYIILDAPPVIAVTDPQILSTMVDGVVLVVSSGVADIEAAKRAKELLENVNANIIGSVLNRVDTESRRGYYGGYYYYYGDEGEKVKKHKDR | not soluble
9 | MGMFERDTEIYLDRDALREDYQPENLVGRDTELNRYRAALQPVINGEQPNNIFLYGKTGVGKTAGTRYLIDHLEEDAAKYEDIDLTVKMLNCDGLSSSYQIATRLVNEFRDETSQISTTGYPRATVYDMLWTELDSCGGTIYIVLDEVDHIEDDSILYQLPRARANDNLSSAKIGIIGISNDFSFRDDLSPKVKSSLCEEEIQFPA | not soluble
10 | MGSDKIHHHHHHMTSDIKRHIKELISGSENSEVEFKSAKGGLPESFWETFSAFANTNGGIIVLGIKEKNGIFMPDGLNKQQIDTYKKRFWDCAHNKEKVSATMLAERDVYETDIDGNFVLLFRIPRASYDIRPVYLTRNPFGNTFKRNHEGDYHCTDSEIRQMFADAHHATLPFDNQILPNYSMNDIDVATLKGYRQRFMLRKDNHPWNELDDFNFLCKIGAYRVDRENGQEGFTRAGILMFGKTESITDQVCCPWYFVDYQEKLSNNTNERWSDRIYADGSWNANLYQFFFKVYNKLSQTLPAPFLLNGIERTEETSAHIAIREALVNCIVHCNYAEQGNILIVREKDKITFRNPGRMLISVDDFYVGSQSVCRNPIIQKFFIQLGYGEKAGSGADYIVKGAIDNKWHIPALVEHVQPDTVSLYLYLNDANDTSYDANNTSYDANDTSYDANDTSYDANDTSSNEHGQRLTKETLINRVLEICEDWITIDEISEKTGKSRQYLRGRIIPEMLKLGLLEKQYPDASTSPNQKYRKKQ | not soluble
11 | VDLPGNDFDSNDFDAVDLWGADGAEGWTADPIIGVGSAATPDTGPDLDNAHGQAETDTEQEIALFTVTNPPRTVSVSTLMDGRIDHVELSARVAWMSESQLASEILVIADLARQKAQSAQYAFILDRMSQQVDADEHRVALLRKTVGETWGLPSPEEAAAAEAEVFATRYSDDCPAPDDESDPW | soluble
12 | MGHHHHHHSHMVYPEEPFWVLPTVTGFYEDRDYRVNVVEALQEFWQMKQSRGAELKNGALVIYESIPSNSQPYICFVTLPGGSCFGSFQNCPTKAEARRSSAKIALMNSVFNEHPSRRISDEFIQKAVQDARTSFKGTSQINEGTESGIGAFRFMLEANKGRTMLEFQELMTVFQLLHWNGSLKAMRERHCSRQEVVAHYSNRSLDDEMRSQMALDWIAREHDNPGVIRRELVLAERELETFRMAGRELRFPKEKKDILMIAHNQLGGSALNSATIDD | not soluble
13 | MNVLRPTLLTLACLLASPGFADDLPSLGDASSAIVSPQQEYQLGRAWLALLRSQVSQLNDPQLKDYVETSVYKLVETSQVNDRRLEFILINSPQLNAFAAPGGIIGVNGGLFLNAQTEGEYASVLAHELAHLSQRHFARGVEAQQRMQVPMMAALLAGIVIAAAGAGDAGIATIAGTQAAAIQEQRRFSRQNEQEADRIGILNLEKAGYDPRSMPTMFERLMRQYRFDAKPPEFLLTHPVTESRIADTRNRAEQARQGGTEDSLRYQLIRARVQLTYEESPGLAAKRFRAQLDENPKNDIARYGLAIAQIKGSQWNEARENLKPLLAKSPNDVTYNLAQIELDMANSRLPDAQTRVERMLNLYPGNYPLNQIRVDLLLKQNRPADAEKALEGLLKSRPDDPDVWYLVAETRGLSGNIIGLHQARAEYFALVGDYRQAIQQLDFAKRRAGSNFPLSSRIDARQREMMDQEQMVKDMMRLEHHHHHH | soluble
14 | MSNGAWTDQENDLIVADYFAMLADDVSGRPYNKAEHRRGLLPLLNDRSEGSVEFKHQNISAVLKGLGEDWIPGYKPAFNFQMTLVDAVARWLALNPAWLGRHSGTRAPTGLAEVRPIWIGPPPTLSNQPPPQELEQMLHIARKFDVAARDERNRALGRAGEERVLAHERATLKSAGRDDLARNVRWVSEEDGDGAGYDIASFALDGSPRLIEVKTTNGWERTPFHISRNELAVAEARRSEWSLFRLWNFAREPKAFELHPPLGAHVSLTATTFQASLHLEHHHHHH | not soluble
15 | MEETKRLQKVYQLFAESTTERIPTDRLVDVLRFAGYIISESYIGELLSSIPGETLDFGQLVDVCERIREREITREELQNSFRRLDVDNTSYIDAGRLVQILSSGENRFSDEEIEELLNILNPDGDGKICYDLVIKNIFGY | not soluble
16 | ARSSRFTRQADETLTDSEGSGLQFINFDEGSASNPIIARDQEGSGQMYDEEGSGNTLLFDSETPIQVMNVTGTEAEPTDSKVFNQSINITDSDVETLVIKVHLPQKTTSQLLDDLKDDTAQQTNPINTLDTAVSLTSMLNELLGKIQDATTQ | not soluble
17 | MAHHHHHHMIHEMCFQELSDSILPAHNGEVALMLATGSPFTDAMTTAAPQQDVWGSSLFSLPELGTDLHSEVSQQNIEKSGSNLNCELQTASHVCNLAPVTFKEEQNKTRITESNTTFGPTPSMHCLSFGSVNAQSNIPSIANSTPNPLACSMVCTSQAPQLSFSSLMSIGNTTVPANSSSTTNGLAYQQASPVATVSNGIPAFFTTAQNGGNVVMFAPSNSQQTLCIPTPVPTMIPYYVIAPPQHTVEVNGTMAYSSLSTAPQSMPPVMCGPWTTNTGSVVGSGAPTPVSVSSASGVMPQTFVTSVTTKPSQPVSFSFPSGDSNQNSASASSIIPLCADGSGNQKAPPRGSPPSYDSLRIQITKRRQPSGRQRSGTNVHGSLQGICSYYSYNLSAALKQYEHPDFHVAKPVEQVLPVFVQMFPCELRDRTIIVLNRVVEATCGPDIATVVGIEPRSETSFITLIRTNDVWHLIHKLRCRVLMDRHGFWYAENMEQYLRLKEYCESVRRLPQQIRHFQTDGLPCMPLVVELSRSVNAASVTSLPAPPSFDEVAPIATMERHGRVATLTGSNEDGSSSPRETGEVINAAAVPLPSGVGRV | not soluble
18 | MAHHHHHHMGSKYGSGNYQLFRALYKDLCDEIRREYYTKPPPPPPATRTTGASPSLVAAEAALEVHGSAGSGANDTSSGAAKQRSMAGGAGATSSSTQGGGMTAGSEREGSTVEAAHAARETAATPPSQPEETYGDGSWSVQHRPEDNVAVFHRGAVKRGRLAAVHAWARIELKDPPRLNAVLTFADWIPIEVCVERNGIVIHFSMAANEGGMHMRNVRVYEPKSAEERAALLDPSDDGEYARKNFYYDGPCLWHLELDMLNELYDVMQDHGVTLDWIRWAASWVFYLEHVNYVRWNLGMLEELIPSSLRGPEEDFLLPVEKALLAEPVEDWLRAHSI | not soluble
19 | MKIFKFTPENNLFYGYILEDMKTGFNILREIMVEGYRPSIARLYDAEDGTQHFTHFADGKCVLIFMAEGNPRIAKVTGEGIAEIVARYPQCQRVDSKLIETWFNNLNWGPDKVAAERVQILKTGNMGFTTEVSGCWSCIHEIYESVINRIRTEFPHADDITMLGGHSSHSYQNGTNMYFVYDYNVVDCKPEEEIDKYHNPLNKIICEETIRLGGSMVHHHGIGKHRVHWSKLEHGSAWALLEGLKKQFDPNGIMNTGTIYPIEK | soluble
20 | MRGLMLRSFSAGYSTQPVIADLNVPLLPRGKITILLGPNGCGKSTLLRSLAGLNNADGEALLDGEDLMSLSFAERAQKVVFLPQSLPQGVHLHVLESIIVVLRASGGRDNAQGRAQILAILEQLGITHLALQYLDQLSGGQRQLVGLAQSLIRRPELLLLDEPLSALDLNYQFHVMDLVRRDTQAQNRVTIVVAHDINIALRHGDHVLMLKDGRLVASGAPETVITAERLAEVYRVRGRVERCSQGKLQVVLDGVIAV | not soluble
21 | MVWQREKLLQVNEIGYRDIDAGVPMQRDTLFRIASMTKPVTVAAAMSLVDEGKLALRDPITRWAPELCKVAVLDDAAGPLDRTHPARRAILIEDLLTHTSGLAYGFSVSGPISRAYQRLPFGQGPDVWLAALATLPLVHQPGDRVTYSHAIDVLGVIVSRIEDAPLYQIIDERVLGPAGMTDTGFYVSADAQRRAATMYRLDEQDRLRHDVMGPPHVTPPSFCNAGGGLWSTADDYLRFVRMLLGDGTVDGVRVLSPESVRLMRTDRLTDEQKRHSFLGAPFWVGRGFGLNLSVVTDPAKSRPLFGPGGLGTFSWPGAYGTWWQADPSADLILLYLIQHCPDLSVDAAAAVAGNPSLAKLRTAQPKFVRRTYRALGL | not soluble
